Assay results: paper PMC12796476 (Nature Communications, 2025)

Columns and labels:
[1] = target: Venus-tagged NEDD4-1 HECT domain (HECT4-1-Ven) (Homo sapiens, NEDD4, UniProt P46934); experiment: FRET or BRET
[2] = target: full-length NEDD4-2-Venus (Homo sapiens, NEDD4L, UniProt Q96PU5, strain); experiment: FRET or BRET
[3] = target: WW4-HECT4-2 domain of NEDD4-2, purified (Homo sapiens, NEDD4L (Q96PU5-1), UniProt Q96PU5-1); experiment: BLI
WW4-HECT4-2 domain of NEDD4-2, purified, sequence (Q96PU5 541-975, one chain of several): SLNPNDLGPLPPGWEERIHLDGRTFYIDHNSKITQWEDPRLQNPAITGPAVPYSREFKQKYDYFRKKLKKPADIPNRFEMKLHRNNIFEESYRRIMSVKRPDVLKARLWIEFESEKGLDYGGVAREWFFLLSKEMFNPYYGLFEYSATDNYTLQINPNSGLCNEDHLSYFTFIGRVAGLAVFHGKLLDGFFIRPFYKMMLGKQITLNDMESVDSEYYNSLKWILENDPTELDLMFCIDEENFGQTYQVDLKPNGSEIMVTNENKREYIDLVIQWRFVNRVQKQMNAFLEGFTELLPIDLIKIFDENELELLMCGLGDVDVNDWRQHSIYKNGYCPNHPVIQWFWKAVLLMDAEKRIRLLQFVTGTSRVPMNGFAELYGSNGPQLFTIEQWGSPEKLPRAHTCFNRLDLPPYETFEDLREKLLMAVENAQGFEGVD

full-length NEDD4-2-Venus, sequence (Q96PU5 whole entry, looked up, change not shown): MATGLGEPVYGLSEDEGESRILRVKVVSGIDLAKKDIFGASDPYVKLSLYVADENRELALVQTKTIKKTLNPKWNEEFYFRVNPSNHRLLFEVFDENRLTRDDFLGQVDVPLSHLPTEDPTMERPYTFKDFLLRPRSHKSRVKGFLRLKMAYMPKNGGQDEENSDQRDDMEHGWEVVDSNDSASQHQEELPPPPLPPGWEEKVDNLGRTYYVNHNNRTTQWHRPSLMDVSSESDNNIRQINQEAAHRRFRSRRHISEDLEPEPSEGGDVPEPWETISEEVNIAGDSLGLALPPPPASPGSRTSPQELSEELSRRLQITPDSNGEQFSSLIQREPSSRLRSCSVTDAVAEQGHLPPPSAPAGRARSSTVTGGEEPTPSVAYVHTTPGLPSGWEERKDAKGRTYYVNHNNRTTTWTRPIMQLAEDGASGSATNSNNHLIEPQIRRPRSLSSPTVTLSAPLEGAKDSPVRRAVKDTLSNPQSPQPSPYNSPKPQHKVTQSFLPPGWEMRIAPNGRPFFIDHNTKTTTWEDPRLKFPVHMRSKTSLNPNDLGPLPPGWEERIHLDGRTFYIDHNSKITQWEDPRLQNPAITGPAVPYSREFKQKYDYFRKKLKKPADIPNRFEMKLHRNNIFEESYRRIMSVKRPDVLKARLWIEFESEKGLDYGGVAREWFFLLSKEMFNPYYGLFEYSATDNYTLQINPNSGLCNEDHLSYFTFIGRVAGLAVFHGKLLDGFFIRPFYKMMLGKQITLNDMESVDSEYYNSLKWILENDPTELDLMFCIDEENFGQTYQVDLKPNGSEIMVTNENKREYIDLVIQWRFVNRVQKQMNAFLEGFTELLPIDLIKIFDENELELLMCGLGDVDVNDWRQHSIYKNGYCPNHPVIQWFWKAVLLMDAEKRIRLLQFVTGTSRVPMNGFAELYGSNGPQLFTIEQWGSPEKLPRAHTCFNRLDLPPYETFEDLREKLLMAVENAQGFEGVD
Venus-tagged NEDD4-1 HECT domain (HECT4-1-Ven), sequence (P46934 984-1318): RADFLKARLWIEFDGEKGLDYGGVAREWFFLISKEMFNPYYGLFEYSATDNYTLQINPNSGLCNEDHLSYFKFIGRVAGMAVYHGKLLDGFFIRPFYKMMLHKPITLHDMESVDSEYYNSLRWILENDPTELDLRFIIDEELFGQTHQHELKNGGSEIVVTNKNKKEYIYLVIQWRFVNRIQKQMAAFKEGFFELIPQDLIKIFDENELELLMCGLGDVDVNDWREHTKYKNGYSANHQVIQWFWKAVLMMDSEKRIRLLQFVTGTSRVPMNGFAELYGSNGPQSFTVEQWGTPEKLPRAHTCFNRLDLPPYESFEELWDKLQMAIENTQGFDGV

| Binder | binding result [1] | binding result [2] | Kd [3] |
| --- | --- | --- | --- |
| Cer-nb.C11 (VHH) VHH: QVQLQESGGGLVQAGGSLRLSCAASGNISDVWYMGWYRQAPGKEREFVAGIAYGTSTYYADSVKGRFTISRDNAKNTVYLQMNSLKPEDTAVYYCAVIITRFVSYPRQHTYWGQGTQVTVSS | no binding | binds | – |
| nb.C11 (HIS-tagged, purified) (VHH) VHH: QVQLQESGGGLVQAGGSLRLSCAASGNISDVWYMGWYRQAPGKEREFVAGIAYGTSTYYADSVKGRFTISRDNAKNTVYLQMNSLKPEDTAVYYCAVIITRFVSYPRQHTYWGQGTQVTVSS | – | – | 2 nM |
